# Source: paper PMC8589989
# B1: 5' overhang DNA (dsDNA)
# DNA 1: TTCTTTTTTTTTCTTTTTCTGCGATCATGACGTAGACGATAGCG
# DNA 2: CGCTATCGTCTACGTCATGATCGC
# B2: 3' overhang DNA (dsDNA)
# DNA 1: GCGATCATGACGTAGACGATAGCGTTCTTTTTTTTTCTTTTTCT
# DNA 2: CGCTATCGTCTACGTCATGATCGC
# Assays:
# His-MBP-ZNF384 [1] = target: T1, His-MBP-ZNF384 (human, UniProt Q8TF68-2 1-516); test: BLI; 400 nM protein; seemingly lower affinity than ssDNA; Pull-down: 10 mM Tris pH 7.5, 150 mM KCl, 5 mM MgCl2, 0.25% Tween-20, 3.5 mM DTT, 5% glycerol, 0.1% BSA, 4 C; BLI: 10 mM Tris pH 7.5, 150 mM KCl, 5 mM MgCl2, 0.05% Tween-20, 0.1% BSA, 1 mM DTT, 298 K; settings: protein: recombinant, tags: His6-MBP, 24 bp duplex
# T1 sequence: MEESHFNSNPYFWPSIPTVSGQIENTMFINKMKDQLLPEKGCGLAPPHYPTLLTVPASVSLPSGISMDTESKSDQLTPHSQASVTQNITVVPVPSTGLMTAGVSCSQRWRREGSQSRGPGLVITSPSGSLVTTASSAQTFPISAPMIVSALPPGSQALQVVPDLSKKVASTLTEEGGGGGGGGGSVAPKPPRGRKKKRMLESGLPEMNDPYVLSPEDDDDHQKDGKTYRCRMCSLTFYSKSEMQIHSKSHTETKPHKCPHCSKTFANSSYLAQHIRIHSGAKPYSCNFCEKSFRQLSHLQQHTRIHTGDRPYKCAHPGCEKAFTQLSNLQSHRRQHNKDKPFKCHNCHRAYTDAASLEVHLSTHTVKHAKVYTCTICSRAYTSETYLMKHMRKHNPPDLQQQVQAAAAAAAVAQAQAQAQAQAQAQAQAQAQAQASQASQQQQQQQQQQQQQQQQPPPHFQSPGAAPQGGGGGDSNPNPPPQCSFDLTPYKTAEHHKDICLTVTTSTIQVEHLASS
# His-MBP-ZNF384 [2] = target: T1, His-MBP-ZNF384; test: pull-down; did not show RNA binding; Pull-down: 10 mM Tris pH 7.5, 150 mM KCl, 5 mM MgCl2, 0.25% Tween-20, 3.5 mM DTT, 5% glycerol, 0.1% BSA, 4 C; BLI: 10 mM Tris pH 7.5, 150 mM KCl, 5 mM MgCl2, 0.05% Tween-20, 0.1% BSA, 1 mM DTT, 298 K; settings: protein: recombinant; tags: His6-MBP; label: 5' biotin; single strand
# His-MBP-ZNF384 [3] = target: T1, His-MBP-ZNF384; test: BLI; 400 nM protein; Pull-down: 10 mM Tris pH 7.5, 150 mM KCl, 5 mM MgCl2, 0.25% Tween-20, 3.5 mM DTT, 5% glycerol, 0.1% BSA, 4 C; BLI: 10 mM Tris pH 7.5, 150 mM KCl, 5 mM MgCl2, 0.05% Tween-20, 0.1% BSA, 1 mM DTT, 298 K; settings: protein: recombinant; tags: His6-MBP; label: 5' biotin; single strand
# His-Ku70/Ku80 = His-Ku70/Ku80 (UniProt P12956;P13010 1-609;1-732); test: pull-down; 100 fmol Ku, without ZNF384; Pull-down: 10 mM Tris pH 7.5, 150 mM KCl, 5 mM MgCl2, 0.25% Tween-20, 3.5 mM DTT, 5% glycerol, 0.1% BSA, 4 C; BLI: 10 mM Tris pH 7.5, 150 mM KCl, 5 mM MgCl2, 0.05% Tween-20, 0.1% BSA, 1 mM DTT, 298 K; settings: protein: recombinant; tags: His; copies: 1;1; label: 5' biotin on strand 1; 3' overhang 20 nt (strand 1, T-rich), 24 bp duplex
# Sequence of His-Ku70/Ku80 (P12956 whole entry, chain 1 of 2): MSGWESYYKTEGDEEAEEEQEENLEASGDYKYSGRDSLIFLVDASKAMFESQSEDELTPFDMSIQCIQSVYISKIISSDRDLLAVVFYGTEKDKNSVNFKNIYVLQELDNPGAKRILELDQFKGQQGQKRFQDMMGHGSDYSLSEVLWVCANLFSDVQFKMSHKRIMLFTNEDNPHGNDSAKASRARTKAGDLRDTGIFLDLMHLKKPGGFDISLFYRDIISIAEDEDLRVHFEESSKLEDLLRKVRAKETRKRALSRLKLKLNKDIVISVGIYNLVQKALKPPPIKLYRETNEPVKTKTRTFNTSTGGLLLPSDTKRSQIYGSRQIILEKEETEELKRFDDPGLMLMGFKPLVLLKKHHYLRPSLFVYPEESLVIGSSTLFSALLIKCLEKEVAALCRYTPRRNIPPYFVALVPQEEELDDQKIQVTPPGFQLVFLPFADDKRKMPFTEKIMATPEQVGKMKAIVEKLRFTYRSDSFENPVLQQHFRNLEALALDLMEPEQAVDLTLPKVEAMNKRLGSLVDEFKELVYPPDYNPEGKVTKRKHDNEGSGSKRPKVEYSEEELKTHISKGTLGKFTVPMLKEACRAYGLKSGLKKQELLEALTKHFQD
# Sequence of His-Ku70/Ku80 (P13010 whole entry, chain 2 of 2): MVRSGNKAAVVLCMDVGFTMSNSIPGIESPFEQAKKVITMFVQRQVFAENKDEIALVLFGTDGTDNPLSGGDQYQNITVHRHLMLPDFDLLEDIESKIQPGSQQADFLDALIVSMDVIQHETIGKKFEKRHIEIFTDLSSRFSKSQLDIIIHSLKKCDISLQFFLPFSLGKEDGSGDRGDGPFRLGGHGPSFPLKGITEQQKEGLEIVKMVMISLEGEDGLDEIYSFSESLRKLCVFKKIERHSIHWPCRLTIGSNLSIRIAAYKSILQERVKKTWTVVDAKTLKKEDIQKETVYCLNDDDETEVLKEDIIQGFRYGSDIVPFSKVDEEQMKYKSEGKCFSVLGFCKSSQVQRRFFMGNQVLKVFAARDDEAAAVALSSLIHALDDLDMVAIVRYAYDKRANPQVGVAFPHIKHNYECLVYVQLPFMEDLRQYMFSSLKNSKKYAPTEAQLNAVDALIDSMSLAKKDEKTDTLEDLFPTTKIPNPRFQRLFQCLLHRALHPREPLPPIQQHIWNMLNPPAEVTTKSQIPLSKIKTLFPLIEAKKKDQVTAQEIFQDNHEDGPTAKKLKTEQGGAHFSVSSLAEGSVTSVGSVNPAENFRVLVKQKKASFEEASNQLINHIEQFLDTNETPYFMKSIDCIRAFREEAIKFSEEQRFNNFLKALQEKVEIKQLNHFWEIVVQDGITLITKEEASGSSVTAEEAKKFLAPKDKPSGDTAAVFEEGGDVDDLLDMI
# [4] = target: His-Ku70/Ku80;His-MBP-ZNF384 (human?;human, UniProt P12956;P13010;Q8TF68-2 1-609;1-732;1-516, |); test: pull-down; Ku binding enhanced by increasing ZNF384; Pull-down: 10 mM Tris pH 7.5, 150 mM KCl, 5 mM MgCl2, 0.25% Tween-20, 3.5 mM DTT, 5% glycerol, 0.1% BSA, 4 C; BLI: 10 mM Tris pH 7.5, 150 mM KCl, 5 mM MgCl2, 0.05% Tween-20, 0.1% BSA, 1 mM DTT, 298 K; settings: protein: recombinant;recombinant; tags: His;His6-MBP; copies: 1;1;1; label: 5' biotin on strand 1; 3' overhang 20 nt (strand 1, T-rich), 24 bp duplex
# Sequence of His-Ku70/Ku80;His-MBP-ZNF384 (P12956 whole entry, chain 1 of 2): as the sequence (P12956 whole entry, chain 1 of 2) above
# Sequence of His-Ku70/Ku80;His-MBP-ZNF384 (P13010 whole entry, chain 2 of 2): as the sequence (P13010 whole entry, chain 2 of 2) above
binder,measurement,setting,value
B1,binding result,"His-MBP-ZNF384 [1]; label: 5' biotin on strand 2, 5' overhang 20 nt (strand 1, T-rich)",binds
GCGAUCAUGACGUAGACGAUAGCGUUCUUUUUUUUUCUUUUUCU (ssRNA) [RNA U-strand],binding result,His-MBP-ZNF384 [2],no binding
GCGATCATGACGTAGACGATAGCGTTCTTTTTTTTTCTTTTTCT (ssDNA) [ssDNA T-strand (ssDNA(T))],binding result,His-MBP-ZNF384 [3],binds
B2,binding result,His-Ku70/Ku80,binds
same,binding result,[4],binds
same,binding result,"His-MBP-ZNF384 [1]; label: 5' biotin on strand 1, 3' overhang 20 nt (strand 1, T-rich)",binds
